{"source": "patent US20240366663A1", "biological_target": "CD20 (UniProt P11836)", "sequence (P11836 whole entry)": "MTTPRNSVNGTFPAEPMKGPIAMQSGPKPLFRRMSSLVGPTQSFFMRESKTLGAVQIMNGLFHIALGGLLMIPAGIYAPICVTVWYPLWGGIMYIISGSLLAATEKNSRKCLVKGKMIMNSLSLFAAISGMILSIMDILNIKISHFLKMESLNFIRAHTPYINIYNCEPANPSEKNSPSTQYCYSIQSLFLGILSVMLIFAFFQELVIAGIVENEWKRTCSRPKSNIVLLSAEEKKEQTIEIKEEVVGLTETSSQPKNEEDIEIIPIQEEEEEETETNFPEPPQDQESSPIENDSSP", "test": "cell-based or functional assay", "data": [{"substance": "Obinutuzumab (antibody)", "values": [{"measurement": "EC:50 of percent specific lysis of ARH-77 cells, 4 h caspase assay, AB-202 + 0.01 µg/mL Obinutuzumab", "value": 1.21}, {"measurement": "EC:50 of percent specific lysis of ARH-77 cells, 4 h caspase assay, AB-202 + 0.1 µg/mL Obinutuzumab", "value": 1.05}, {"measurement": "EC:50 of percent specific lysis of ARH-77 cells, 4 h caspase assay, AB-202 + 1 µg/mL Obinutuzumab", "value": 0.97}, {"measurement": "EC:50 of percent specific lysis of ARH-77 cells, 4 h caspase assay, CBNK + 0.01 µg/mL Obinutuzumab", "value": 2.99}, {"measurement": "EC:50 of percent specific lysis of ARH-77 cells, 4 h caspase assay, CBNK + 0.1 µg/mL Obinutuzumab", "value": 0.85}, {"measurement": "EC:50 of percent specific lysis of ARH-77 cells, 4 h caspase assay, CBNK + 1 µg/mL Obinutuzumab", "value": 0.37}, {"measurement": "fold increase of AB-202 killing activity on ARH-77 cells with 1 µg/mL Obinutuzumab versus no antibody", "value": 2.9, "unit": "fold"}, {"measurement": "fold increase of CBNK killing activity on ARH-77 cells with 1 µg/mL Obinutuzumab versus no antibody", "value": 66.5, "unit": "fold"}]}, {"substance": "Rituximab (antibody)", "values": [{"measurement": "EC:50 of percent specific lysis of ARH-77 cells, 4 h caspase assay, AB-202 + 0.1 µg/mL Rituximab", "value": 1.56}, {"measurement": "EC:50 of percent specific lysis of ARH-77 cells, 4 h caspase assay, AB-202 + 1 µg/mL Rituximab", "value": 1.49}, {"measurement": "EC:50 of percent specific lysis of ARH-77 cells, 4 h caspase assay, CBNK + 0.01 µg/mL Rituximab", "value": 11}, {"measurement": "EC:50 of percent specific lysis of ARH-77 cells, 4 h caspase assay, CBNK + 0.1 µg/mL Rituximab", "value": 3.25}, {"measurement": "EC:50 of percent specific lysis of ARH-77 cells, 4 h caspase assay, CBNK + 1 µg/mL Rituximab", "value": 2.39}]}]}
